Source: paper PMC4565748

Tests used:
[1] = molecular target: complement C3b, site-specifically biotinylated (human) (UniProt P01024); test: SPR
[2] = molecular target: complement C3b, site-specifically biotinylated (human) (UniProt P01024); test: SPR; remark: listed apart in the source
[3] = molecular target: complement C3b, site-specifically biotinylated (human) (UniProt P01024); test: AlphaScreen or HTRF

Sequence of complement C3b, site-specifically biotinylated (human) (P01024 23-667, chain 1 of 2): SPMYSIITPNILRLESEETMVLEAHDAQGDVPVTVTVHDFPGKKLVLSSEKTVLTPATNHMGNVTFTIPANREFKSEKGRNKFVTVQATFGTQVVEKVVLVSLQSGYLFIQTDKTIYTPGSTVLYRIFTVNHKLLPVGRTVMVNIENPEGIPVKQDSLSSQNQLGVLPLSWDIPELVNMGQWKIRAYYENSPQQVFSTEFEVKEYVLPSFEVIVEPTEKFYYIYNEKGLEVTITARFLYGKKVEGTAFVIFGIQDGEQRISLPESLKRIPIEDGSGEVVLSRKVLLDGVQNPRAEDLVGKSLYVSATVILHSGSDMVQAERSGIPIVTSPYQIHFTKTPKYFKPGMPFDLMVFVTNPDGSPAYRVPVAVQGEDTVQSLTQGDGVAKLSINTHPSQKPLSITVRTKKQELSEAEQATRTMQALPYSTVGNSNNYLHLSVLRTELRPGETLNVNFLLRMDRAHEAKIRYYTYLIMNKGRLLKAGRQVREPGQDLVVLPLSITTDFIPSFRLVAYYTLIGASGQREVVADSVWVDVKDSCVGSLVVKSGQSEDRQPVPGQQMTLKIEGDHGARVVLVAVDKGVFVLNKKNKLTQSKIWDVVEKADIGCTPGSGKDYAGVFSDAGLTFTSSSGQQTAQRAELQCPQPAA
Sequence of complement C3b, site-specifically biotinylated (human) (P01024 749-1663, chain 2 of 2): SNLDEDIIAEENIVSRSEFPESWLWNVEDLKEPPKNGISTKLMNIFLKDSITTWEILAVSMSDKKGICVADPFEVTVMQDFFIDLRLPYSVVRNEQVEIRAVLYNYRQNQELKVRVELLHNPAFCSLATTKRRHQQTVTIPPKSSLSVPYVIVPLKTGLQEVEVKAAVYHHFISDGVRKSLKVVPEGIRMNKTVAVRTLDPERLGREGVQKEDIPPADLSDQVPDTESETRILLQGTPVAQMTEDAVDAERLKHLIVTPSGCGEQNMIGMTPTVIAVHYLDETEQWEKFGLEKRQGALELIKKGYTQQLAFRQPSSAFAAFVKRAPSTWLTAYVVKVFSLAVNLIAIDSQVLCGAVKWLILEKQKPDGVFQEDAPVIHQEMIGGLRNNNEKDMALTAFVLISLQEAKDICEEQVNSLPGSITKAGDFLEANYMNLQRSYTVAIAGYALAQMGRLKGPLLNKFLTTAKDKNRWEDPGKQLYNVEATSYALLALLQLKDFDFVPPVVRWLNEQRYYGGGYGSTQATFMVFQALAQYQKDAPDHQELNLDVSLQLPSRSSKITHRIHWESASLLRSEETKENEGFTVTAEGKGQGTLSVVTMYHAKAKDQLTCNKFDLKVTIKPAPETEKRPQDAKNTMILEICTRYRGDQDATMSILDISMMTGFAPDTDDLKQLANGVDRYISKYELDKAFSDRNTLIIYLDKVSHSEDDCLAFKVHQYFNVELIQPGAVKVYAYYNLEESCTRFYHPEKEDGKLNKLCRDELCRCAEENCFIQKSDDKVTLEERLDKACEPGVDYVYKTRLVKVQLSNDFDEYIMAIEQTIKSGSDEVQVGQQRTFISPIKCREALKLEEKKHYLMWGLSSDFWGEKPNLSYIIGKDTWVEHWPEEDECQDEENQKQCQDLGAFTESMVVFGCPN

Substance | Kd [1] | koff [1] | kon [1] | Kd [2] | Kd [3]
SCIN-B.R44A (natural protein) | 2600 nM | 0.35 s⁻¹ | 140000 M⁻¹ s⁻¹ | 2500 nM | 
SCIN-B.R44A.Y51A (natural protein) | 5100 nM | 0.51 s⁻¹ | 110000 M⁻¹ s⁻¹ | 2500 nM | 3500 nM
SCIN-B.Y51A (natural protein) | 810 nM |  |  | 1000 nM | 900 nM
staphylococcal complement inhibitor SCIN-B, full-length wild type (natural protein) | 202 nM |  | 520000 M⁻¹ s⁻¹ | 390 nM | 
